Values quoted from earlier work, collected in patent publication US11608532B2, “Precision medicine for treating and preventing suicidality” (Indiana University Research and Technology Corporation, priority 2017, dated 2023).
Read-outs that look alike come from different tables or passages of the source.

Test system: individual top biomarkers for suicidality

B1: siltuximab (antibody, chains of the INN, looked up, V domains shown)
VH: EVQLVESGGKLLKPGGSLKLSCAASGFTFSSFAMSWFRQSPEKRLEWVAEISSGGSYTYYPDTVTGRFTISRDNAKNTLYLEMSSLRSEDTAMYYCARGLWGYYALDYWGQGTSVTVSS
VL: QIVLIQSPAIMSASPGEKVTMTCSASSSVSYMYWYQQKPGSSPRLLIYDTSNLASGVPVRFSGSGSGTSYSLTISRMEAEDAATYYCQQWSGYPYTFGGGTKLEIK
In the case of B1, the “IL6 modulated by drug in opposite direction to suicide” value (B. Top Biomarkers in Males, direction of change in suicidality I, AP/2) is given as “siltuximab”.

B2: Siltuximab (antibody, chains of the INN, looked up, V domains shown)
VH: EVQLVESGGKLLKPGGSLKLSCAASGFTFSSFAMSWFRQSPEKRLEWVAEISSGGSYTYYPDTVTGRFTISRDNAKNTLYLEMSSLRSEDTAMYYCARGLWGYYALDYWGQGTSVTVSS
VL: QIVLIQSPAIMSASPGEKVTMTCSASSSVSYMYWYQQKPGSSPRLLIYDTSNLASGVPVRFSGSGSGTSYSLTISRMEAEDAATYYCQQWSGYPYTFGGGTKLEIK
In the case of B2, the “Step 6 Drugs that Modulate the Biomarker in Opposite Direction to Suicide” value (biomarker IL6 (interleukin 6)) is given as “Siltuximab”.

B3: CAT-354 (antibody, chains of the INN, looked up, V domains shown)
VH: QVQLVQSGAEVKKPGASVKVSCKASGYTFTNYGLSWVRQAPGQGLEWMGWISANNGDTNYGQEFQGRVTMTTDTSTSTAYMELRSLRSDDTAVYYCARDSSSSWARWFFDLWGRGTLVTVSS
VL: SYVLTQPPSVSVAPGKTARITCGGNIIGSKLVHWYQQKPGQAPVLVIYDDGDRPSGIPERFSGSNSGNTATLTISRVEAGDEADYYCQVWDTGSDPVVFGGGTKLTVL
For B3, the “Step 6 Drugs that Modulate the Biomarker in Opposite Direction to Suicide” value (biomarker IL13 (interleukin 13)) is listed as “CAT-354”.

B4: certolizumab (antibody, chains of the INN, looked up, V domains shown)
VH: EVQLVESGGGLVQPGGSLRLSCAASGYVFTDYGMNWVRQAPGKGLEWMGWINTYIGEPIYADSVKGRFTFSLDTSKSTAYLQMNSLRAEDTAVYYCARGYRSYAMDYWGQGTLVTVSS
VL: DIQMTQSPSSLSASVGDRVTITCKASQNVGTNVAWYQQKPGKAPKALIYSASFLYSGVPYRFSGSGSGTDFTLTISSLQPEDFATYYCQQYNIYPLTFGQGTKVEIK
In the case of B4, the “TNF modulated by drug in opposite direction to suicide” value (D. Top Biomarkers in Bipolar Disorder, direction of change in suicidality (I) DE/1, (I) AP/1) is listed as “certolizumab,”.
